Test results from patent US20240254244A1 (QYUNS THERAPEUTICS, published 2024).

T1: Human IFNAR1 on cells (HEK Blue IFNα/β cells, Daudi cells, human whole blood) (human, UniProt P17181 28-557)
T1 sequence (looked up): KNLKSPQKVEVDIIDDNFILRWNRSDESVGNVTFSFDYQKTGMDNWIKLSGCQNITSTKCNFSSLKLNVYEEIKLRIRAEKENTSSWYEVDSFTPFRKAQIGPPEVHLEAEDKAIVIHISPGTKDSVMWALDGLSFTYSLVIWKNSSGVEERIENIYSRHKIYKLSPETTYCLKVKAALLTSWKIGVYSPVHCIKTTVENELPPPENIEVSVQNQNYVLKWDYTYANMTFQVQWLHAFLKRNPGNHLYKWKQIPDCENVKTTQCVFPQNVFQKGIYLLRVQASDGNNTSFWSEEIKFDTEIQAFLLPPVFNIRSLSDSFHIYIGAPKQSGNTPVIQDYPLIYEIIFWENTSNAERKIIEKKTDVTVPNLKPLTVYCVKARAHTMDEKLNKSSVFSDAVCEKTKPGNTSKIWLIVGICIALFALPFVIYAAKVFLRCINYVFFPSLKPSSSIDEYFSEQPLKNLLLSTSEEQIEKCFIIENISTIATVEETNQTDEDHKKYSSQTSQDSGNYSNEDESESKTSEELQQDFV

T2: Human interferon alpha receptor 1 (IFNAR1) (human, UniProt P17181 28-436)
T2 construct: Soluble antigen flowed over captured antibody in Biacore; also called human IFNAR1; Human Interferon alpha/beta Receptor 1
T2 sequence: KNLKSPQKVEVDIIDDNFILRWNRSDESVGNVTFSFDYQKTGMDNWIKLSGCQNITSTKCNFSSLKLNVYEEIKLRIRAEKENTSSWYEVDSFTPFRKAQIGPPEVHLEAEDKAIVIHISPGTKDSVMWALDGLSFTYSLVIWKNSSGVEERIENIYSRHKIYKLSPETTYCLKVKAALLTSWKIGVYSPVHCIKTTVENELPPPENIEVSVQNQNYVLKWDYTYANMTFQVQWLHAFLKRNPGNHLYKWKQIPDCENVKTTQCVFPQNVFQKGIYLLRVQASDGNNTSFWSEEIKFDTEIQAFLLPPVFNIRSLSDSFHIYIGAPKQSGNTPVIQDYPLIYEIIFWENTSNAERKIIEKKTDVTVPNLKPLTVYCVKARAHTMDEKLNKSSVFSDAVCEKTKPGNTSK

B1: QX006N (HZD1203-45-IgG4.1) (antibody, V domains shown)
VH: EVQLVESGGGLVQPGGSLRLSCAASGFSLSSYYMTWVRQAPGKGLEWVSVINVYGGTYYASWAKGRFTISRDNSKNTLYLQMNSLRAEDTAVYYCAREDVAVYMAIDLWGQGTLVTVSS
VL: AIQMTQSPSSLSASVGDRVTITCQASQSISNQLSWYQQKPGKAPKLLIYDASSLASGVPSRFSGSRSGTKFTLTISSLQPEDFATYYCLGIYGDGADDGIAFGGGTKVEIKR
notes: Humanized rabbit antibody (clone 1203#) with human IgG4 constant region, expressed in ExpiCHO-S cells; also called anti-human interferon alpha receptor 1 (IFNAR1) monoclonal antibody of the present application
B2: Anifrolumab (antibody, V domains shown)
VH: EVQLVQSGAEVKKPGESLKISCKGSGYIFTNYWIAWVRQMPGKGLESMGIIYPGDSDIRYSPSFQGQVTISADKSITTAYLQWSSLKASDTAMYYCARHDIEGFDYWGRGTLVTVSS
VL: EIVLTQSPGTLSLSPGERATLSCRASQSVSSSFFAWYQQKPGQAPRLLIYGASSRATGIPDRLSGSGSGTDFTLTITRLEPEDFAVYYCQQYDSSAITFGQGTRLEIKR

How the values were obtained:
[1] = target: T1, Human IFNAR1 on cells (HEK Blue IFNα/β …); experiment: cell-based or functional assay
[2] = target: T2, Human interferon alpha receptor 1 …; experiment: SPR, Biacore T200, antibody captured on Protein A chip, antigen as analyte, 25 C, 1:1 model, mean of three
Procedure: BiacoreT200 was used to detect the affinity between QX006N (HZD1203-45-IgG4.1) and human IFNAR1. All processes were performed at 25° C. A commercial Protein A chip was used to immobilize an appropriate amount of antibody through the capture method so that Rmax was around 50 RU and the capture flow rate was 10 μl/min. The antigen was gradient diluted, the flow rate of the instrument was switched to 30 μl/min, flowed through the reference channel and the fixed antibody channel in order of concentration from low to high, and flowed through buffer as the negative control. The chip was regenerated with pH1.5 glycine after each binding and dissociation was completed. The built-in analysis software of the instrument was used to select the 1:1 binding model in the Kinetics option for fitting, and the antibody's binding rate constant kₐ, dissociation rate constant kd, and dissociation equilibrium constant KD values were calculated.
The data in the table were: each sample was tested three times and the average value was calculated.

| Binder | EC50 of neutralising the effect of interferon (0.8 ng/ml IFNα.2b) on Daudi cell proliferation (CellTiter-Glo) [1] | IC50 of inhibiting interferon (0.2 ng/ml IFNα.2b) induced STAT1/2 phosphorylation in HEK Blue IFNα/β reporter cells [1] | IC50 of inhibiting interferon (8 ng/ml IFNα.2b with 40 ng/ml TNF-α) induced release of CXCL10/IP10 from human whole blood [1] | Kd [2] | koff [2] | kon [2] |
| --- | --- | --- | --- | --- | --- | --- |
| B1 | 29.9 ng/mL | 5.23 ng/mL | 698 ng/mL | 0.108 nM | 3.76e-05 s⁻¹ | 347000 M⁻¹ s⁻¹ |
| B2 | 31.7 ng/mL | 4.43 ng/mL | 562 ng/mL | – | – | – |
